Sequences and labels used below:
B1: E3 ubiquitin-protein ligase TRIM36, residues 208 to 252; numbered along this chain, Q9NQ86 (parent)
chain: KILMCPEHETERINMYCELCRRPVCHLCKLGGNHANHRVTTMSSA

± gives the uncertainty stated by the source.

Drawing on the Human Domainome abundance scans (Beltran et al. 2025), this text covers abundance fitness for 57 variants.

Variants of B1 are the subject of the data set. Nature of the data set: abundance fitness (aPCA) (normalised: wild type 0, dead -1); higher = more abundant; growth selection in yeast, the domain comes from the species named. To be noted: Homo sapiens.
As to KILMCPEHETERINMYCELCRRPVCHLCKLNGNHANHRVTTMSSA [G31N], the abundance fitness was -0.058 ± 0.078.

In the case of KILMCPEHETERINMYCELCRRPVCHLCKLQGNHANHRVTTMSSA [G31Q], the abundance fitness is -0.019 ± 0.056.

As to KILMCPEHETERINMYCELCKRPVCHLCKLGGNHANHRVTTMSSA [R21K], the abundance fitness is 0.108 ± 0.071.

As for KILMCPEHETERINMYCELCVRPVCHLCKLGGNHANHRVTTMSSA [R21V], the abundance fitness amounted to 0.01 ± 0.054.

Regarding KILMCPEHETERINMYCELCFRPVCHLCKLGGNHANHRVTTMSSA [R21F], the abundance fitness was -0.425 ± 0.38.

With KILMCPEHETERINMYCELCYRPVCHLCKLGGNHANHRVTTMSSA [R21Y], the abundance fitness is 0.027 ± 0.14.

In the case of KILMCPEHETERINMYCELCRPPVCHLCKLGGNHANHRVTTMSSA [R22P], the abundance fitness was -0.344 ± 0.077.

As to KILMCPEHETERINMYCELCRCPVCHLCKLGGNHANHRVTTMSSA [R22C], the abundance fitness is -0.118 ± 0.062.

Regarding KILMCPEHETERINMYCELCRQPVCHLCKLGGNHANHRVTTMSSA [R22Q], the abundance fitness amounted to 0.036 ± 0.059.

As for KILMCPEHETERINMYCELCRRPVCHLCKLGGNHLNHRVTTMSSA [A35L], the abundance fitness was -0.091 ± 0.056.

In the case of KILMCPEHETERINMYCELCRRPVCHLCKLGGNHDNHRVTTMSSA [A35D], the abundance fitness came to 0.085 ± 0.098.

Turning to KILMCPEHETERINMYCELCRRPVCHLCKLGGNHSNHRVTTMSSA [A35S], the abundance fitness was -0.052 ± 0.054.

For KILMCPEHETPRINMYCELCRRPVCHLCKLGGNHANHRVTTMSSA [E11P], the abundance fitness is -0.854 ± 0.42.

On to KILMCPEHETRRINMYCELCRRPVCHLCKLGGNHANHRVTTMSSA [E11R], for which the abundance fitness is -0.602 ± 0.081.

In the case of KILMCPEHETERANMYCELCRRPVCHLCKLGGNHANHRVTTMSSA [I13A], the abundance fitness was -0.015 ± 0.078.

For the variant KILMCPEHETERMNMYCELCRRPVCHLCKLGGNHANHRVTTMSSA [I13M], the abundance fitness came out at 0.049 ± 0.31.

As to KILMCPEHETERLNMYCELCRRPVCHLCKLGGNHANHRVTTMSSA [I13L], the abundance fitness stood at 0.032 ± 0.1.

On to KILMCPEHETERWNMYCELCRRPVCHLCKLGGNHANHRVTTMSSA [I13W], for which the abundance fitness is -0.035 ± 0.15.

As to KILMCPEHETEEINMYCELCRRPVCHLCKLGGNHANHRVTTMSSA [R12E], the abundance fitness was -0.016 ± 0.098.

Regarding KILMCPEHETEIINMYCELCRRPVCHLCKLGGNHANHRVTTMSSA [R12I], the abundance fitness is -0.14 ± 0.079.

KILMCPEHETEPINMYCELCRRPVCHLCKLGGNHANHRVTTMSSA [R12P]: the abundance fitness was 0.186 ± 0.12.

On to KILMCPEHETERINMYCELCRRPVCHLCKLGGNHANTRVTTMSSA [H37T], for which the abundance fitness is -0.208 ± 0.064.

As for KILMCPEHETERINMYCELCRRPVCHLCKLGGNHANDRVTTMSSA [H37D], the abundance fitness is -0.217 ± 0.063.

In the case of TILMCPEHETERINMYCELCRRPVCHLCKLGGNHANHRVTTMSSA [K1T], the abundance fitness was -0.157 ± 0.065.

In the case of GILMCPEHETERINMYCELCRRPVCHLCKLGGNHANHRVTTMSSA [K1G], the abundance fitness was -0.273 ± 0.058.

For the variant LILMCPEHETERINMYCELCRRPVCHLCKLGGNHANHRVTTMSSA [K1L], the abundance fitness is -0.388 ± 0.092.

For the variant RILMCPEHETERINMYCELCRRPVCHLCKLGGNHANHRVTTMSSA [K1R], the abundance fitness is -0.28 ± 0.062.

On to KILMCPEHETERINMYCELCRRPVCHLCRLGGNHANHRVTTMSSA [K29R], for which the abundance fitness was -0.025 ± 0.051.

Take KIMMCPEHETERINMYCELCRRPVCHLCKLGGNHANHRVTTMSSA [L3M]: the abundance fitness stood at 0.092 ± 0.056.

As to KIWMCPEHETERINMYCELCRRPVCHLCKLGGNHANHRVTTMSSA [L3W], the abundance fitness is -0.254 ± 0.053.

As for KIEMCPEHETERINMYCELCRRPVCHLCKLGGNHANHRVTTMSSA [L3E], the abundance fitness is 0.163 ± 0.052.

For the variant KILMCPEHETERINMYCELCRRPVCHLCKLGGNHANHRVTTMSSM [A45M], the abundance fitness is -0.232 ± 0.099.

As for KILMCPEHETERINMYCELCRRPVCHLCKLGGNHANHRVTTMSSP [A45P], the abundance fitness was 0.015 ± 0.099.

As to KILMCPEHETERINMYCELCRRPVCHLCKLGGNHANHRVTTMSSG [A45G], the abundance fitness worked out at 0.023 ± 0.062.

For KILMCPEHETERINMYCELCRRPVCHICKLGGNHANHRVTTMSSA [L27I], the abundance fitness is -0.041 ± 0.064.

In the case of KILMCPEHETERINMYCELCRRPVCHTCKLGGNHANHRVTTMSSA [L27T], the abundance fitness is 0.095 ± 0.081.

For KILMCPEHETERINMYCELCRRPVCHECKLGGNHANHRVTTMSSA [L27E], the abundance fitness was -0.058 ± 0.05.

KILMCPEHETERINMYCELCRRPVCHLCKLGGRHANHRVTTMSSA [N33R]: the abundance fitness was -0.066 ± 0.052.

Consider KILMCPEHETERINMYCELCRRPVCHLCKLGGIHANHRVTTMSSA [N33I], for which the abundance fitness is -0.064 ± 0.072.

For KILMCPEHETERINMYCLLCRRPVCHLCKLGGNHANHRVTTMSSA [E18L], the abundance fitness was -0.196 ± 0.052.

KILMCPEHETERINMYCYLCRRPVCHLCKLGGNHANHRVTTMSSA [E18Y]: the abundance fitness is -0.416 ± 0.12.

Turning to KILMCPEHETERINMYCRLCRRPVCHLCKLGGNHANHRVTTMSSA [E18R], the abundance fitness was -0.385 ± 0.054.

Regarding KILMCPEHETERINMYCVLCRRPVCHLCKLGGNHANHRVTTMSSA [E18V], the abundance fitness is -0.172 ± 0.069.

Take KILMCPEHETERINMYCPLCRRPVCHLCKLGGNHANHRVTTMSSA [E18P]: the abundance fitness was -0.269 ± 0.076.

Regarding KILMCCEHETERINMYCELCRRPVCHLCKLGGNHANHRVTTMSSA [P6C], the abundance fitness is -0.235 ± 0.069.

Regarding KILMCPEHETERINMYCELCRRPNCHLCKLGGNHANHRVTTMSSA [V24N], the abundance fitness was -0.49 ± 0.09.

Turning to KILMCPEHETERINMYCELCRRPWCHLCKLGGNHANHRVTTMSSA [V24W], the abundance fitness was -0.351 ± 0.056.

Turning to KILMCPEHETERINMYCELCRRPDCHLCKLGGNHANHRVTTMSSA [V24D], the abundance fitness is -0.453 ± 0.094.

For the variant KILMCPEHETERINMYCELCRRPMCHLCKLGGNHANHRVTTMSSA [V24M], the abundance fitness was -0.133 ± 0.066.

Take KHLMCPEHETERINMYCELCRRPVCHLCKLGGNHANHRVTTMSSA [I2H]: the abundance fitness is -0.139 ± 0.06.

Take KILMCPEHETERINMYCELMRRPVCHLCKLGGNHANHRVTTMSSA [C20M]: the abundance fitness was -0.534 ± 0.084.

In the case of KILMCPEHETERINMYCELVRRPVCHLCKLGGNHANHRVTTMSSA [C20V], the abundance fitness is -0.789 ± 0.059.

With KILMCPEHETERINMYCELGRRPVCHLCKLGGNHANHRVTTMSSA [C20G], the abundance fitness is -0.595 ± 0.054.

Consider KILMCPEHETERINMYCELQRRPVCHLCKLGGNHANHRVTTMSSA [C20Q], for which the abundance fitness was -0.504 ± 0.055.

Take KILMCPEHETERINMYCELCRRPVCHLCKLGGNHANHRVTAMSSA [T41A]: the abundance fitness is -0.111 ± 0.062.

As to KILMCPEHETERINMYCELCRRPVCHLCKLGGNHANHRVTFMSSA [T41F], the abundance fitness is -0.189 ± 0.084.

For KILMCPEHETERINMYCELCRRPVCHLCKLGGNHANHRVTNMSSA [T41N], the abundance fitness is -0.289 ± 0.16.
